Consider two substances from PMC10707464.

Data set [1] relates to CCCCCCCCCC(=O)CC(=O)N[C@H]1CCOC1=O. Put plainly: purified protein. The settings on record: 25.0 °C.
Another data set deals with CCCCSC1CCC(=O)O1. Description: purified protein. The settings on record: pH 8.0; 25.0 °C.

For the substance “SacPox (Sulfolobus acidocaldarius DSM 639)”, the kcat/Km (in general, the turnover number divided by the Michaelis constant) in data set [1] is 1.62e+07 ± 2.2e+06 M⁻¹ s⁻¹. In the data set on CCCCSC1CCC(=O)O1, the Km (as a rule, the concentration of substrate that gives half-maximal velocity) stood at 24 ± 0.5 µM and the kcat/Km is 1.86e+06 ± 70000 M⁻¹ s⁻¹.

For SsoPox (Saccharolobus solfataricus P2), in the data set with CCCCSC1CCC(=O)O1, the Km came to 80 ± 3 µM and the specificity constant (kcat/Km) is 360000 ± 10000 M⁻¹ s⁻¹.
